Reference: patent publication US20230065493A1

Target: CPTL derived from para rubber tree (Hevea brasiliensis) (Hevea brasiliensis)

| Radioactivity (isoprene polymerization activity, 14C-IPP incorporation, proteoliposome) | Substance |
| --- | --- |
| 290 dpm | CPT1 derived from para rubber tree (Hevea brasiliensis) (enzyme) |
| 7660 dpm | cis-prenyltransferase (CPT) 6 derived from para rubber tree (Hevea brasiliensis) (enzyme) |
| 5040 dpm | cis-prenyltransferase (CPT) 7 derived from para rubber tree (Hevea brasiliensis) (enzyme) |
